For one data set, the system named is single HSC. The data set is described as follows: Single cell gene expression profiling of HSC (nanofluidic real time PCR). The class given is cell-based, mice. Particulars: 16 h culture in the presence of M-CSF. The procedure: CD150+CD34− KSLF HSC or CD150+CD34− CD48− KSLF HSC (single cells) were sorted into S-clone SF-03 medium (Sanko Jyunyaku) with 10% FBS supplemented with 100 U/ml penicillin and […] streptomycin (both Invitrogen) and cultivated in uncoated U-Shape 96 well plates (Greiner) in 100 μl SCM, 20 ng/ml rSCF, 50 ng/ml rTPO+/−100 ng/ml rM-CSF or 100 ng/ml rGM-CSF or 100 ng/ml rG-CSF. All cytokines were murine and from PeproTech. Cell viability was analyzed by AnnexinV and Propidium iodide FACS staining^35.
Single cells were sorted using the autoclone module on a FACSARIA™ III sorter (Becton-Dickinson) directly into 96 wells plate in the CELLS DIRECT™ Reaction Mix (Invitrogen). Individual cell lysis, cDNA synthesis and amplification was performed according to FLUIDIGM Advanced Development Protocol and single cell microfluidic real time PCR using Dynamic Array IFCs (BIOMARK™ FLUIDIGM) was performed by a trained technician of FLUIDIGM Inc. Preamplified products (22 cycles) were diluted 5-fold prior to analysis with Universal PCR Master Mix and inventoried TAQMAN® gene expression assays (ABI) in 96.96 DYNAMIC ARRAY™ on a BIOMARK™ system (FLUIDIGM). Ct values were calculated from the system's software (BIOMARK™ Real-time PCR Analysis; FLUIDIGM) and filtered according to a set of quality control rules outlined below.
(In general: Real-time PCR tracks product formation cycle by cycle.)

The subject of data set [1] is PU.1 promoter activation in single PU.1 negative HSC. The data set can be described thus: Time-lapse video imaging of GFP-negative sorted HSC from PU.1-GFP mice. The class given is cell-based. The procedure: Wherever possible our video microscopy protocols followed proposed guidelines^24. In detail, FACS sorted CD150+ CD34− KSLF HCS from wt C57/Bl6 or GFP-negative CD150+ CD34− KSLF HSC from PU.1-GFP reporter mouse^31 bone marrow were suspended in SCM supplemented with 100 U/ml penicillin and […] streptomycin, 20 ng/ml rSCF, 50 ng/ml rTPO+/−100 ng/ml rM-CSF and plated in Ibidi μ-slidesVI(0.4) (Biovalley SA, France). Time-lapse microscopy was performed using a Cell Observer system (Carl Zeiss Microscopy GmbH, Germany) at 37° C. and 5% CO2. Images were acquired every 10 minutes using 10× (A-plan 10×/0.45 Ph1) or 40× (Plan-Apochromat 40×/0.95 Korr M27) objectives in brightfield and fluorescence (GFP filters: EX BP 470/40; at 350 ms) with a COOLSNAP™ HQ2 monochrome camera (Photometrics) with a 2×2 binning and a metal halide 120W source for fluorescence illumination. For image analysis a matrix of 4×4 images was acquired for each time point. Images were stitched with AxioVision software (Carl Zeiss Microscopy GmbH, Germany) and processed with Fiji software^36 using a slight rolling ball subtraction of background and 1 pixel Gaussian blur. For background subtraction of brightfield images, the median of z-projection was subtracted from the time-lapse stack. Single cell tracking was performed with basic commands of ImageJ^37 and Fiji^36 software and with specific tracking plugin MTrackJ^38 in manual mode. Each cell was tracked manually frame-by-frame in the bright field channel and cross-controlled by two microscope specialists. Cells with non-standard morphology or size were rejected. The fluorescence signal was measured as the difference of maximum minus minimum intensity within a defined region of interest (ROI) around each cell. Cell properties and behaviour (cell division, cell death, position, fluorescence increase) were manually documented to build cumulated curves. R^39 and Excel (Microsoft Corporation) software was used to manage data and build graphics.

The subject of the next data set is HSC. The data set can be described thus: Competitive transplantation of M-CSF primed HSC, blood cell contribution. In kind it is in vivo. The procedure:
CD45.1 and C57Bl/6 mice were obtained from Charles River. PU.1-GFP^31 M-CSFR^−/−27 and PU.1^fl/fl 32 mice have been described. Age- and sex-matched CD45.1 recipients that were reconstituted as described^3 with CD45.2 foetal liver from wt or M-CSFR^−/− embryos^27 and PU.1^fl/fl or PU.1^fl/fl::MxCre bone marrow, were used to isolate CD150+CD34− KSLF HSC not earlier than 8 weeks after reconstitution. For in vivo injections the 10 μg/mouse M-CSF, 5 mg/kg LPS (055:B5 E. coli) or sorted cells were injected in 100 μl of PBS into the retro-orbital sinus. For HSC transplantation 400 CD150+CD34− KSLF HSC were sorted from CD45.2 mice and mixed with 100.000 Lin^+ Sca^− CD45.1 carrier cells prior to injection into sub-lethally irradiated (4.5 Gy) CD45.1 recipient mice. For competitive transplantations, 1300 CD150+, CD34-KSLF HSC were isolated 16 h after control or 10 μg M-CSF injection from actin-GFP CD45.2 mice^33, mixed with equal numbers of CD45.2 competitor HSC and injected with 300.000 Lin^+ Sca^− RC-lysed CD45.1 carrier cells into sub-lethally irradiated (4.5 Gy) CD45.1 recipients. Contribution to platelets, CD19+ B-cells and CD11b+ myeloid cells was analysed after 4 and 6 weeks in the blood from mice with at least 5% GFP+ donor cells. For PU.1 deletion PU.1^fl/fl or PU.1^fl/fl::MxCre reconstituted mice were intra-peritoneally injected with 5 μg/g Polyinosinic:polycytidylic acid 7 and 9 days prior to control (PBS) or 10 μg M-CSF injection. All mouse experiments were performed under specific pathogen-free conditions in accordance with institutional guidelines.

B1: M-CSF: recombinant murine macrophage colony stimulating factor from PeproTech, used in Example 1 (protein, UniProt P07141 33-552, looked up)
Macrophage colony-stimulating …: KEVSEHCSHMIGNGHLKVLQQLIDSQMETSCQIAFEFVDQEQLDDPVCYLKKAFFLVQDIIDETMRFKDNTPNANATERLQELSNNLNSCFTKDYEEQNKACVRTFHETPLQLLEKIKNFFNETKNLLEKDWNIFTKNCNNSFAKCSSRDVVTKPDCNCLYPKATPSSDPASASPHQPPAPSMAPLAGLAWDDSQRTEGSSLLPSELPLRIEDPGSAKQRPPRSTCQTLESTEQPNHGDRLTEDSQPHPSAGGPVPGVEDILESSLGTNWVLEEASGEASEGFLTQEAKFSPSTPVGGSIQAETDRPRALSASPFPKSTEDQKPVDITDRPLTEVNPMRPIGQTQNNTPEKTDGTSTLREDHQEPGSPHIATPNPQRVSNSATPVAQLLLPKSHSWGIVLPLGELEGKRSTRDRRSPAELEGGSASEGAARPVARFNSIPLTDTGHVEQHEGSSDPQIPESVFHLLVPGIILVLLTVGGLLFYKWKWRSHRDPQTLDSSVGRPEDSSLTQDEDRQVELPV
Regarding B1, in the data set on single HSC, the “cells with a myeloid gene expression signature” value was “strong increase” and the “number of PU.1+ cells” value was “doubling”. In addition, the “proliferation or survival advantage of cultured HSC (video-microscopy)” value in data set [1] (culture in M-CSF) is on record as “no proliferation or survival advantage”. In addition, the “PU.1+ cells developed versus control conditions” value in data set [1] (end of the 24 h observation period (18 to 42 hours of culture)) is reported as “over two-fold more PU.1+ cells”. Also, the “commitment events of PU.1 activation occurred earlier” value in data set [1] (in the presence of M-CSF versus control) turned out to be 8 h. Further, the “rate of PU.1 activation events” value in data set [1] (over the whole observation period) is given as “higher rate”. Besides, the long-term multi-lineage contribution entry in the data set with HSC is on record as “did not compromise”. Moreover, the “myeloid contribution compared to platelet and lymphoid contribution in the blood” value in the data set with HSC (after 6 weeks) was “re-equilibrated”. The “myeloid contribution compared to platelet and lymphoid contribution in the blood” value in the data set on HSC (at 4 weeks) was “myeloid advantage”.

The values above are taken from patent publication US10709762B2, “Use of M-CSF for preventing or treating myeloid cytopenia and related complications” (priority 2013, dated 2020).
